For one molecule, Leakage activity, Relative activity of maturated deamidase (% initial rate) and NanoDSF thermal unfolding temperature results are on record in patent publication US20250215412A1 (NOVOZYMES A S, published 2025).

Holding throughout (test): cell-based or functional assay
Test [1] has as its target T1, Chryseobacterium sp-62563 deamidase C230N (Chryseobacterium sp-62563).
T1 sequence: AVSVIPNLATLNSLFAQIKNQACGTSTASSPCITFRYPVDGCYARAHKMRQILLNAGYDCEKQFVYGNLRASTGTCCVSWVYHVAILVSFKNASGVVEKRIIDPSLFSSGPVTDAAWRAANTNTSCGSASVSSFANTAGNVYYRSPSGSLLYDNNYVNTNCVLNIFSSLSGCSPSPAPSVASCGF

Test [2] has as its target T2, Chryseobacterium sp-62563 deamidase Q126E (Chryseobacterium sp-62563).
T2 sequence: T1 sequence with Q17E, N121C

The target of test [3] is T3, Chryseobacterium sp-62563 deamidase Q126K (Chryseobacterium sp-62563).
T3 sequence: T1 sequence with Q17K, N121C

The target in test [4] is T4, Chryseobacterium sp-62563 deamidase Q130D (Chryseobacterium sp-62563).
T4 sequence: T1 sequence with Q21D, N121C

In test [5] the target is T5, Chryseobacterium sp-62563 deamidase Q130E (Chryseobacterium sp-62563).
T5 sequence: T1 sequence with Q21E, N121C

The target of test [6] is T6, Chryseobacterium sp-62563 deamidase Q130L (Chryseobacterium sp-62563).
T6 sequence: T1 sequence with Q21L, N121C

In test [7] the target is T7, Chryseobacterium sp-62563 deamidase Q172I (Chryseobacterium sp-62563).
T7 sequence: T1 sequence with Q63I, N121C

The target of test [8] is T8, Chryseobacterium sp-62563 deamidase polypeptide (second polypeptide, deamidase domain), wildtype (Chryseobacterium sp-62563).
T8 sequence: T1 sequence with N121C

Changes are numbered by the printed parent chain. Numbers in names are those of the source. A value given as a limit tells only on which side of the number the result lay.

B1: Chryseobacterium sp-62563 propeptide F99A (protein)
chain: NQDPNLVAKESNETAMKDFGKTVPVGIEKEDGKFKISFMVTAQPYEIKDSKENAAYISMIKTAVENETPIHVFLKANTNEIAKVDKATDDDIRYFKSVATKEVKEENRK
B1: the Leakage activity is 0% in test [1] and 4% in test [8]. The Relative activity of maturated deamidase (% initial rate) in test [1] was 42; in test [2] it was more than 100; in test [3], more than 100; in test [4], more than 100; in test [5] it was 44; in test [6], more than 100. Further, the values for the Relative activity of maturated deamidase (% initial rate) in test [7] and in test [8] were 31 and 52, respectively. The molecule also registered a NanoDSF thermal unfolding temperature in test [8] of 76.4 ° C.
